In paper PMC12135937 one finds Kd data, which are given here for five substances.

For assay [1], the target named is DIP-β isoform G (Drosophila melanogaster). In words: SPR; Biacore T100, CM4 chip; DIPs immobilised by amine coupling (700-900 RU), monomeric Dpr analytes in 3-fold dilution series (0.012 to 9, 27 or 81 µM); 25 °C; 10 mM Tris-HCl pH 7.2, 150 mM NaCl, 1 mM EDTA, 1 mg/mL BSA, 0.01% Tween-20; equilibrium responses fit to a 1:1 model. (In general: SPR reads the build-up and loss of mass on a sensor chip optically.)

In assay [2] the target is DIP-β isoform C (Drosophila melanogaster). Described as above.
Sequence of DIP-β isoform C (Drosophila melanogaster) (main, as listed by the source): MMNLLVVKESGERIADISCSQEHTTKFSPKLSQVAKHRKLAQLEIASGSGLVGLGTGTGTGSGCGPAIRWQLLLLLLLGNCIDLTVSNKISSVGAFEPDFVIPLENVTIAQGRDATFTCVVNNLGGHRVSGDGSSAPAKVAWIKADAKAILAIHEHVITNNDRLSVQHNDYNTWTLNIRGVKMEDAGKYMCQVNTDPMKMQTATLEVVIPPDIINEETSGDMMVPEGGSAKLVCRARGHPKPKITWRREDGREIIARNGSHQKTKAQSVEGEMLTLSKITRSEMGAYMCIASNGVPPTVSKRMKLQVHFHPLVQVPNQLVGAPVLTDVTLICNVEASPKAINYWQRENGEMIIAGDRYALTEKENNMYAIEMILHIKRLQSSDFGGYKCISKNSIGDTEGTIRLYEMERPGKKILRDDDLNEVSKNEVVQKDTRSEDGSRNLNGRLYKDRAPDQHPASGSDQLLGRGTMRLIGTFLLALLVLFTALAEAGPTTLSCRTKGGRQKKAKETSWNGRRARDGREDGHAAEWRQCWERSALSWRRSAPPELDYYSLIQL

Sequence of DIP-β isoform G (Drosophila melanogaster) (main, as listed by the source): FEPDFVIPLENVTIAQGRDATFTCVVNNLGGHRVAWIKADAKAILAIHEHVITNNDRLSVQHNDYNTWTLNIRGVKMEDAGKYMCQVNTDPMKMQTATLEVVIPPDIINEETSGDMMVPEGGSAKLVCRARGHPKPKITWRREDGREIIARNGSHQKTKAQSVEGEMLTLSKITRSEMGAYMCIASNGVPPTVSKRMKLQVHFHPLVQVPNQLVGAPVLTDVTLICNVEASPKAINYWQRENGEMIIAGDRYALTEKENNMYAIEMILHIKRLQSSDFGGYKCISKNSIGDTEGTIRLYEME

For orientation: Kd means the free concentration of one partner at which half of the binding sites on the other are occupied at equilibrium, for simple one-to-one binding. In the case of Dpr17 (natural protein), the Kd was 58.7 µM in assay [1] and 176 µM in assay [2].
Taken in the same sequence, the figures for Dpr9 (natural protein) were 3.41 µM and 5.97 µM.
Taken in the same sequence, the figures for Dpr16 (natural protein) were 60 µM and 180 µM.
As to Dpr8 (natural protein), the Kd in assay [1] came to 0.789 µM; in assay [2], 1.32 µM.
Taken in the same sequence, the figures for Dpr11 (natural protein) were 180 µM and 106 µM.
